Reference: article PMC2756588

T1: Cdc25, P04821
T1 sequence (P04821 50-136, looked up): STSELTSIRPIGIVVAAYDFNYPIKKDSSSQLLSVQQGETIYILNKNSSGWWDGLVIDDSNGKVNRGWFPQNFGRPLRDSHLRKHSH

T2: Lsb4, P32793
T2 sequence (P32793 402-468, looked up): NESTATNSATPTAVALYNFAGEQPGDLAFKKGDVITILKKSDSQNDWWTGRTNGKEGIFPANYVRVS

T3: Lsb3, P43603
T3 sequence (P43603 385-451, looked up): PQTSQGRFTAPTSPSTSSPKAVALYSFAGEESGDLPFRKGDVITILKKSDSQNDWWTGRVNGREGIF

T4: Bzz1-2, P38822
T4 sequence (P38822 568-633, looked up): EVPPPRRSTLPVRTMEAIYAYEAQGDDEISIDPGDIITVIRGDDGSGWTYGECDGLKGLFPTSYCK

T5: Nbp2, Q12163
T5 sequence (Q12163 103-180, looked up): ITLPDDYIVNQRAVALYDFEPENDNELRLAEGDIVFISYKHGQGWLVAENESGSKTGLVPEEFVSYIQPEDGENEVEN

T6: Pin3, Q06449
T6 sequence (Q06449 53-122, looked up): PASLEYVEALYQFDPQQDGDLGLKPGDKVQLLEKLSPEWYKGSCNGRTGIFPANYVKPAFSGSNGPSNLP

T7: Fus1, P11710
T7 sequence (P11710 432-512, looked up): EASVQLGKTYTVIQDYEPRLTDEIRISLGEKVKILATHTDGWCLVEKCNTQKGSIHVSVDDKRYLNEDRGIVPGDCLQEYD

T8: Sla1-2, P32790
T8 sequence (P32790 60-140, looked up): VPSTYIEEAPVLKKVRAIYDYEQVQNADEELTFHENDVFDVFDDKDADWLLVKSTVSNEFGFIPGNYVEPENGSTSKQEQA

T9: Pex13, P80667
T9 sequence (P80667 295-386, looked up): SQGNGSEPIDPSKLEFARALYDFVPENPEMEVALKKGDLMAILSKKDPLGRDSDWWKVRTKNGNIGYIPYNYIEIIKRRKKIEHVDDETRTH

T10: Bzz1-1, P38822
T10 sequence (P38822 478-572, looked up): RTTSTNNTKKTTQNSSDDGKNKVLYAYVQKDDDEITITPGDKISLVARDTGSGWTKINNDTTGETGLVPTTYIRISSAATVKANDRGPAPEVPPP

T11: Myo5, Q04439
T11 sequence (Q04439 1072-1160, looked up): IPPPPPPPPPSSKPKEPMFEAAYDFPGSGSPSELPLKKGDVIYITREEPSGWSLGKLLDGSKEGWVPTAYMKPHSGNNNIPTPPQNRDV

T12: Lsb1, P53281
T12 sequence (P53281 45-122, looked up): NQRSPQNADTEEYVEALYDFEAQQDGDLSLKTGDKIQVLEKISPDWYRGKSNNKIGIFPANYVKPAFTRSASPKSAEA

T13: Boi1, P38041
T13 sequence (P38041 1-86, looked up): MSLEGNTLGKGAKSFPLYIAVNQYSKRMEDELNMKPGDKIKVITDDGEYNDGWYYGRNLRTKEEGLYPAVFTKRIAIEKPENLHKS

T14: Hof1, Q05080
T14 sequence (Q05080 590-669, looked up): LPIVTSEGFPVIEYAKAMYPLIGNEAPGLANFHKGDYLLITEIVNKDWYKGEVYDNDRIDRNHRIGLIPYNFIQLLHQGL

T15: Cyk3, Q07533
T15 sequence (Q07533 1-83, looked up): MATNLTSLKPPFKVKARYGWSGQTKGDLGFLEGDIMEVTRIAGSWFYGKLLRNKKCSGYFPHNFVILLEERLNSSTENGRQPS

T16: Bud14, P27637
T16 sequence (P27637 247-328, looked up): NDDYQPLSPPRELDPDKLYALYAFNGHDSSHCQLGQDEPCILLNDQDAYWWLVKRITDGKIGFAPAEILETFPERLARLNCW

T17: Abp1, P15891
T17 sequence (P15891 535-592, looked up): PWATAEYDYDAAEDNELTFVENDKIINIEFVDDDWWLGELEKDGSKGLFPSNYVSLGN

T18: Boi2, P39969
T18 sequence (P39969 32-116, looked up): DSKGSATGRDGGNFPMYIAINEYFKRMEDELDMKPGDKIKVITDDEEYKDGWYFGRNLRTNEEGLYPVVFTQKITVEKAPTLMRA

T19: Bbc1, P47068
T19 sequence (P47068 1-78, looked up): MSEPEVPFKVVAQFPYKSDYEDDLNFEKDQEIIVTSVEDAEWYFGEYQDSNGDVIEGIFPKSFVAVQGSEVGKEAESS

T20: Hse1, P38753
T20 sequence (P38753 208-285, looked up): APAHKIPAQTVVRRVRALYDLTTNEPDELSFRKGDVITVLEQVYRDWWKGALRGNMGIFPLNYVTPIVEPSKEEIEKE

T21: Sla1-3, P32790
T21 sequence (P32790 344-424, looked up): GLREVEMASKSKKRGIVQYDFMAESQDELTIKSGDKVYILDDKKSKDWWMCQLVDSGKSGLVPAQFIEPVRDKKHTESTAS


What follows are binders tested against T1, Cdc25, P04821 (assay: SPOT array). Details: median of control spots 969.

SPOT intensity | Binder
0 | RKLRTVPGVPLIHLT
0 | GRLRPKRIAPWHLIQ
18 | IKKRNKIRLPSGSPE

These binders were tested against T2, Lsb4, P32793 (assay: SPOT array). Details: median of control spots 397.

SPOT intensity | Binder
5 | RKLRTVPGVPLIHLT
0 | GRLRPKRIAPWHLIQ
6 | IKKRNKIRLPSGSPE

Each binder was assayed against Bem1-2, P29366 (assay: SPOT array). Details: median of control spots 4347.
Bem1-2, P29366, sequence (P29366 139-227): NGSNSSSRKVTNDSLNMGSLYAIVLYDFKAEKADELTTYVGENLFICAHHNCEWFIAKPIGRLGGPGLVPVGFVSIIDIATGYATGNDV

SPOT intensity | Binder
0 | RKLRTVPGVPLIHLT
6 | GRLRPKRIAPWHLIQ
0 | IKKRNKIRLPSGSPE

What follows are binders tested against T3, Lsb3, P43603 (assay: SPOT array). Details: median of control spots 406.

SPOT intensity | Binder
2 | RKLRTVPGVPLIHLT
0 | GRLRPKRIAPWHLIQ
0 | IKKRNKIRLPSGSPE

What follows are binders tested against Rvs167, P39743 (assay: SPOT array). Details: median of control spots 2707.
Rvs167, P39743, sequence (P39743 419-482): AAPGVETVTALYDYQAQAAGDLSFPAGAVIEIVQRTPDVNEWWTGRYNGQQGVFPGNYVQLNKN

SPOT intensity | Binder
43 | RKLRTVPGVPLIHLT
8 | GRLRPKRIAPWHLIQ
4 | IKKRNKIRLPSGSPE

What follows are binders tested against T4, Bzz1-2, P38822 (assay: SPOT array). Details: median of control spots 4538.

SPOT intensity | Binder
0 | RKLRTVPGVPLIHLT
4 | GRLRPKRIAPWHLIQ
4 | IKKRNKIRLPSGSPE

Each binder was assayed against T5, Nbp2, Q12163 (assay: SPOT array). Details: median of control spots 357.

SPOT intensity | Binder
0 | RKLRTVPGVPLIHLT
10 | GRLRPKRIAPWHLIQ
24 | IKKRNKIRLPSGSPE

What follows are binders tested against T6, Pin3, Q06449 (assay: SPOT array). Details: median of control spots 2171.

SPOT intensity | Binder
3 | RKLRTVPGVPLIHLT
5 | GRLRPKRIAPWHLIQ
4 | IKKRNKIRLPSGSPE

What follows are binders tested against Myo3, P36006 (assay: SPOT array). Details: median of control spots 468.

SPOT intensity | Binder
8 | RKLRTVPGVPLIHLT
0 | GRLRPKRIAPWHLIQ
7 | IKKRNKIRLPSGSPE

Each binder was assayed against T7, Fus1, P11710 (assay: SPOT array). Details: median of control spots 1200.

SPOT intensity | Binder
2 | RKLRTVPGVPLIHLT
6 | GRLRPKRIAPWHLIQ
52 | IKKRNKIRLPSGSPE

The binders below were run against T8, Sla1-2, P32790 (assay: SPOT array). Details: median of control spots 712.

SPOT intensity | Binder
1 | RKLRTVPGVPLIHLT
0 | GRLRPKRIAPWHLIQ
0 | IKKRNKIRLPSGSPE

What follows are binders tested against T9, Pex13, P80667 (assay: SPOT array). Details: median of control spots 1341.

SPOT intensity | Binder
4 | RKLRTVPGVPLIHLT
8 | GRLRPKRIAPWHLIQ
2 | IKKRNKIRLPSGSPE

Each binder was assayed against Bem1-1, P29366 (assay: SPOT array). Details: median of control spots 4282.
Bem1-1, P29366, sequence (P29366 55-141): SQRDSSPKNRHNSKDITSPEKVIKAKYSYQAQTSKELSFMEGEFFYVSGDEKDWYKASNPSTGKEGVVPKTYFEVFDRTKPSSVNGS

SPOT intensity | Binder
0 | RKLRTVPGVPLIHLT
0 | GRLRPKRIAPWHLIQ
1 | IKKRNKIRLPSGSPE

Each binder was assayed against GST (assay: SPOT array). Details: median of control spots 978.

SPOT intensity | Binder
1 | RKLRTVPGVPLIHLT
0 | GRLRPKRIAPWHLIQ
3 | IKKRNKIRLPSGSPE

These binders were tested against T10, Bzz1-1, P38822 (assay: SPOT array). Details: median of control spots 4446.

SPOT intensity | Binder
1 | RKLRTVPGVPLIHLT
0 | GRLRPKRIAPWHLIQ
2 | IKKRNKIRLPSGSPE

The binders below were run against T11, Myo5, Q04439 (assay: SPOT array). Details: median of control spots 471.

SPOT intensity | Binder
0 | RKLRTVPGVPLIHLT
0 | GRLRPKRIAPWHLIQ
0 | IKKRNKIRLPSGSPE

The binders below were run against Sho1, P40073 (assay: SPOT array). Details: median of control spots 1148.
Sho1, P40073, sequence (P40073 287-367): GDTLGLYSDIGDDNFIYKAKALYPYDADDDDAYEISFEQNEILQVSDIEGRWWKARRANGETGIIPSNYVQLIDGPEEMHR

SPOT intensity | Binder
6 | RKLRTVPGVPLIHLT
83 | GRLRPKRIAPWHLIQ
122 | IKKRNKIRLPSGSPE

Each binder was assayed against T12, Lsb1, P53281 (assay: SPOT array). Details: median of control spots 388.

SPOT intensity | Binder
0 | RKLRTVPGVPLIHLT
0 | GRLRPKRIAPWHLIQ
104 | IKKRNKIRLPSGSPE

What follows are binders tested against T13, Boi1, P38041 (assay: SPOT array). Details: median of control spots 1162.

SPOT intensity | Binder
0 | RKLRTVPGVPLIHLT
2 | GRLRPKRIAPWHLIQ
5 | IKKRNKIRLPSGSPE

Each binder was assayed against T14, Hof1, Q05080 (assay: SPOT array). Details: median of control spots 4086.

SPOT intensity | Binder
2 | RKLRTVPGVPLIHLT
1 | GRLRPKRIAPWHLIQ
6 | IKKRNKIRLPSGSPE

These binders were tested against T15, Cyk3, Q07533 (assay: SPOT array). Details: median of control spots 1451.

SPOT intensity | Binder
0 | RKLRTVPGVPLIHLT
1 | GRLRPKRIAPWHLIQ
9 | IKKRNKIRLPSGSPE

What follows are binders tested against T16, Bud14, P27637 (assay: SPOT array). Details: median of control spots 956.

SPOT intensity | Binder
3 | RKLRTVPGVPLIHLT
3 | GRLRPKRIAPWHLIQ
10 | IKKRNKIRLPSGSPE

Each binder was assayed against T17, Abp1, P15891 (assay: SPOT array). Details: median of control spots 935.

SPOT intensity | Binder
5 | RKLRTVPGVPLIHLT
25 | GRLRPKRIAPWHLIQ
136 | IKKRNKIRLPSGSPE

The binders below were run against T18, Boi2, P39969 (assay: SPOT array). Details: median of control spots 1161.

SPOT intensity | Binder
0 | RKLRTVPGVPLIHLT
1 | GRLRPKRIAPWHLIQ
3 | IKKRNKIRLPSGSPE

These binders were tested against T19, Bbc1, P47068 (assay: SPOT array). Details: median of control spots 796.

SPOT intensity | Binder
34 | RKLRTVPGVPLIHLT
57 | GRLRPKRIAPWHLIQ
101 | IKKRNKIRLPSGSPE

These binders were tested against T20, Hse1, P38753 (assay: SPOT array). Details: median of control spots 1727.

SPOT intensity | Binder
0 | RKLRTVPGVPLIHLT
9 | GRLRPKRIAPWHLIQ
6 | IKKRNKIRLPSGSPE

The binders below were run against T21, Sla1-3, P32790 (assay: SPOT array). Details: median of control spots 5475.

SPOT intensity | Binder
5 | RKLRTVPGVPLIHLT
41 | GRLRPKRIAPWHLIQ
43 | IKKRNKIRLPSGSPE
